According to doi:10.1101/067827 (bioRxiv, 2016):

Target: the molecule itself
Assay: SEC

B1: MCAK-His6 (purified full-length MCAK) (enzyme, UniProt Q99661 1-725, looked up)
chain: MAMDSSLQARLFPGLAIKIQRSNGLIHSANVRTVNLEKSCVSVEWAEGGATKGKEIDFDDVAAINPELLQLLPLHPKDNLPLQENVTIQKQKRRSVNSKIPAPKESLRSRSTRMSTVSELRITAQENDMEVELPAAANSRKQFSVPPAPTRPSCPAVAEIPLRMVSEEMEEQVHSIRGSSSANPVNSVRRKSCLVKEVEKMKNKREEKKAQNSEMRMKRAQEYDSSFPNWEFARMIKEFRATLECHPLTMTDPIEEHRICVCVRKRPLNKQELAKKEIDVISIPSKCLLLVHEPKLKVDLTKYLENQAFCFDFAFDETASNEVVYRFTARPLVQTIFEGGKATCFAYGQTGSGKTHTMGGDLSGKAQNASKGIYAMASRDVFLLKNQPCYRKLGLEVYVTFFEIYNGKLFDLLNKKAKLRVLEDGKQQVQVVGLQEHLVNSADDVIKMIDMGSACRTSGQTFANSNSSRSHACFQIILRAKGRMHGKFSLVDLAGNERGADTSSADRQTRMEGAEINKSLLALKECIRALGQNKAHTPFRESKLTQVLRDSFIGENSRTCMIATISPGISSCEYTLNTLRYADRVKELSPHSGPSGEQLIQMETEEMEACSNGALIPGNLSKEEEELSSQMSSFNEAMTQIRELEEKAMEELKEIIQQGPDWLELSEMTEQPDYDLETFVNKAESALAQQAKHFSALRDVIKALRLAMQLEEQASRQISSKKRPQ
- stoichiometry N: 2
